Test results: PMC12093266, “Synergistic action of two radical SAM enzymes in the biosynthesis of thuricin CD, a two-component sactibiotic” (Chemical Science, 2025)

Experiments:
[1] = target: TrnD (Bacillus thuringiensis); assay: MST; TrnD fluorescently labeled; TrnC R370A/K372A mutant as the other partner
[2] = target: TrnC (Bacillus thuringiensis); assay: MST; TrnC fluorescently labeled with RED-NHS; series of diluted TrnD (or TrnD(ΔRRE), or an equimolar mixture of TrnD with TrnA or TrnB) mixed with it in capillaries; Monolith instrument; aerobic conditions
[3] = target: TrnC (Bacillus thuringiensis); assay: pull-down; 6× His-tagged TrnC and non-tagged TrnD coexpressed in E. coli from a pRSFduet-1-derived construct; cell lysate purified on Ni-NTA; SDS-PAGE

Row | Substance | Kd [2] [µM] | further results
1 | TrnC R370A/K372A mutant (enzyme) |  | Kd [1]: 10.2 µM
2 | TrnD(ΔRRE) (enzyme) | 100 | 
3 | equimolar mixture of TrnD and TrnA (complex) | 0.54 | 
4 | non-tagged TrnD (enzyme) |  | stoichiometry N [3]: 1
